{"source": "patent US8273705B2", "about": "“Conversion of apoptotic proteins” (The Burnham Institute, priority 2002, dated 2012)", "molecules": {"B1": {"name": "TR3/ΔDBD: TR3 mutant with the DNA binding domain removed; used as GFP fusion (protein)", "chain": "MPCIQAQYGTPAPSPGPRDHLASDPLTPEFIKPTMDLASPEAAPAAPTALPSFSTFMDGYTGEFDTFLYQLPGTVQPCSSASSSASSTSSSSATSPASASFKFEDFQVYGCYPGPLSGPVDEALSSSGSDYYGSPCSAPSPSTPSFQPPQLSPWDGSFGHFSPSQTYLVLHRLQCARGFGDWIDSILAFSRSLHSLLVDVPAFACLSALVLITDRHGLQEPRRVEELQNRIASCLKEHVAAVAGEPQPASCLSRLLGKLPELRTLCTQGLQRIFYLKLEDLVPPPPIIDKIFMDTLPF", "modifications": "left off: large carriers; small tags and cut ends", "notes": "used as GFP fusion"}, "B2": {"name": "TR3/ΔDBD/Δ471-488: TR3/ΔDBD with eighteen amino acids from 471 to 488 in the DC1 region deleted (protein)", "chain": "MPCIQAQYGTPAPSPGPRDHLASDPLTPEFIKPTMDLASPEAAPAAPTALPSFSTFMDGYTGEFDTFLYQLPGTVQPCSSASSSASSTSSSSATSPASASFKFEDFQVYGCYPGPLSGPVDEALSSSGSDYYGSPCSAPSPSTPSFQPPQLSPWDGSFGHFSPSQTYLVLFSRSLHSLLVDVPAFACLSALVLITDRHGLQEPRRVEELQNRIASCLKEHVAAVAGEPQPASCLSRLLGKLPELRTLCTQGLQRIFYLKLEDLVPPPPIIDKIFMDTLPF", "modifications": "left off: large carriers; small tags and cut ends", "notes": "TR3/ΔDBD with eighteen amino acids from 471 to 488 in the DC1 region deleted"}}, "key": {"[1]": {"tested_on": "peripheral blood lymphocytes (PBLs)", "assay": "Apoptosis of peripheral blood lymphocytes", "format": "cell-based, human", "settings": "annexin V-staining, transfection", "procedure": "Isolation and transfection of human peripheral blood lymphocytes (PBLs)—Leukocyte-enriched buffy coats from San Diego Blood Bank were diluted with 2 volumes of PBS, and PBLs were isolated by centrifuge on Ficoll-paque™ Plus (Amersham Pharmacia biotech). The mononuclear cells were cultured in RPMI containing 10% FBS and 20 μM Hepes. Freshly isolated cells (10^7 cells per transfection) were washed once with PBS containing 0.5% BSA and supernatant was completely discarded so that no residual PBS/BSA covers the pellet. The cells were resuspended in 100 μl of the human T Cell Nucleofector™ solution (Amexa biosystems) and very gently mixed with 1-4 μg DNA in 5 μl. The cell suspension was transferred into a cuvette supplied by Amexa biosystems and electroporated using U-14 program of Nucleofector™ device. The cells were removed from the cuvette quickly by adding 500 μl of the pre-warmed RPMI medium containing 10% FBS and 20 μM Hepes and transferred into 12 well plates containing 1.5 ml of pre-warmed culture medium."}, "[2]": {"tested_on": "Calu-6 lung cancer cells", "assay": "Mitochondrial targeting and cytochrome c release in Calu-6 cells", "format": "cell-based", "from_the_text": "TR3/ΔDBD targets mitochondria in NCI-H460 cells, which express high levels of Bcl-2 (Lu et al. 2001 Cancer Chemother Pharmacol 47:170-178). To determine whether Bcl-2 is involved in mitochondrial targeting of TR3, GFP-TR3/ΔDBD was transfected into Calu-6 lung cancer cells, which express low levels of Bcl-2. GFP-TR3/ΔDBD and Bcl-2 were transfected into Calu-6 lung cancer cells alone or together."}, "[3]": {"biological_target": "T1, Bcl-2 (Homo sapiens, UniProt P10415)", "T1 construct": "expressed in transfected cells; host or cells: HEK293T", "assay": "Co-IP assay of TR3 mutants with Bcl-2 in HEK293T cells", "format": "binding", "settings": "GFP fusions co-transfected with Bcl-2 in HEK293T cells", "experimental": "TR3/Bcl-2 interaction assays—Reporter gene assays using NurRE-tk-CAT in CV-1 cells, and GST pull-down assay were described previously (Li, et al. 2000 Science 289, 1159-1164). For the mammalian two-hybrid assays, CV-1 cells were co-transfected with pcDNA-Gal4TAD-TR3 or pcDNA-Gal4TAD-TR3/ΔDBD and pcDNA-Gal4DBD-Bcl-2/ΔTM along with a luciferase reporter gene driven by four copies of the Gal4-binding site. The cells were harvested and reporter gene activity was measured. For Co-IP assays, HEK293T cells were transiently transfected with various expression plasmids using a modified calcium phosphate precipitation method (Wu et al, 1997) in the presence of caspase inhibitors (zVAD-fmk) to prevent degradation of TR3 protein due to apoptosis. Cells were suspended in lysis buffer (50 mM Tris-HCl, PH7.4; 150 mM NaCl; 20 mM EDTA; 1% NP-40; 1 mM PMSF; 50 μg/ml Leupeptin; […]; 0.1 mM Na3VO4; and 1 mM DTT). Cells extracts were cleared by incubation with the Protein A/G plus Agarose beads (Santa Cruz) and then incubated with appropriate antibody and 30 μl of Protein A or G plus Agarose beads overnight at 4° C. Beads were then washed and boiled in Laemmli gel-loading solution before performing SDS-PAGE/immunoblotting using the following polyclonal or monoclonal antibodies: monoclonal mouse anti-GFP (Medical and Biological Laboratories), monoclonal mouse anti-HA (Roche Molecular Biochemicals), monoclonal mouse anti-FLAG (Sigma), monoclonal mouse anti-Myc (Santa Cruz), polyclonal rabbit anti-TR3 (Active Motif), or monoclonal mouse anti-Bcl-2 (Santa Cruz). Immunoreactive products were detected by chemiluminescence with an enhanced chemiluminescence system (ECL) (Amersham).\nTR3/ΔDBD, which can constitutively reside on mitochondria, was also analyzed by co-immunoprecipitation (Co-IP) assay for its interaction with Bcl-2. GFP-TR3/ΔDBD was transfected into human embryonic kidney cell line 293T alone or together with a Bcl-2 expression vector. The expressed GFP-TR3/ΔDBD mutant protein as then precipitated by using either anti-Bcl-2 antibody or control IgG and detected by western blotting using anti-GFP antibody. The same membranes were also blotted with anti-Bcl-2 antibody to determine precipitation specificity and efficiency. Input represents 10% of total cell extract used in the precipitation assays.\nSeveral TR3 mutants were analyzed to determine the domain of TR3 which interacts with Bcl-2. The TR3 mutants are schematically represented in FIG. 1. A Co-IP assay was performed, as described above. […] Cell extracts were prepared and incubated with anti-Bcl-2 antibody or control IgG for Co-IP assays. Lysates were immunoprecipitated by using either polyclonal rabbit anti-Bcl-2 antibody or control IgG. Cell lysates and immunoprecipitates were examined by immunoblotting using anti-GFP antibody. The same membranes were also blotted with anti-Bcl-2 antibody (Santa Cruz) to determine IP specificity and efficiency. […] This Co-IP was specific because Bcl-2 co-transfection was necessary. […] Thus, the DC1 region in the TR3 LBD is involved in the Bcl-2 interaction.\nTo further determine the interaction of DC1 with Bcl-2, a region of hydrophobic amino acids ([…]—SEQ ID NO: 1) was deleted from TR3/ΔDBD, and the resulting mutant (TR3/ΔDBD/Δ471-488) was analyzed for its interaction with Bcl-2. TR3/ΔDBD/[…], with eighteen amino acids from 471 to 488 in the DC1 region deleted from TR3/ΔDBD, TR3/ΔDBD/I483A (with Ile483 replaced with Ala) and TR3/ΔDBD/L487A (with Leu487 replaced with Ala) were analyzed for their interaction with Bcl-2 by in vivo Co-IP assay as described above."}, "[4]": {"tested_on": "LNCaP cells", "assay": "Colocalization of transfected GFP-TR3/ΔDBD and Bcl-2 in LNCaP cells", "format": "cell-based", "settings": "cotransfected with Bcl-2, 20 h", "experimental": "Next, the interaction of transfected TR3 and Bcl-2 was analyzed."}, "[5]": {"biological_target": "T1, Bcl-2", "assay": "Bcl-2 conformation by epitope-specific antibody immunofluorescence (flow cytometry)", "format": "cell-based", "settings": "HEK293T, co-expressed with Bcl-2, 14 h", "experimental": "Therefore the possibility that a conformational change might be involved in the conversion of Bcl-2 from anti-apoptotic to pro-apoptotic function was explored. To this end, the effects of TR3 on binding of Bcl-2 to various anti-Bcl-2 antibodies recognizing different epitopes were compared. Antibody binding to Bcl-2 was measured by immunofluorescence using flow cytometry (See FIGS. 9a-f) or by immunoprecipitation.\nThe transfected cells were identified by their green fluorescence by flow cytometric analysis, and the intensity of Bcl-2 immunofluorescence was compared between the GFP-positive and GFP-negative cells. […] This TR3/ΔDBD-induced change in Bcl-2 conformation was also observed in PBLs in addition to HEK293T cells (See FIGS. 9a-f)."}}, "note": "“Also recorded” adds a separate entry of the source.", "data": [{"molecule": "B1", "values": [{"measurement": "PBL apoptosis", "setting": "[1]", "value": "potently induced PBL apoptosis"}, {"measurement": "subcellular distribution", "setting": "[2]; Calu-6, Bcl-2 co-transfected", "value": "targeted mitochondria"}, {"measurement": "cytochrome c release", "setting": "[2]; Calu-6, Bcl-2 cotransfected", "value": "released from mitochondria"}, {"measurement": "subcellular distribution", "setting": "[2]; Calu-6, alone", "value": "diffusely distributed"}, {"measurement": "interaction with Bcl-2 (Co-IP)", "setting": "[3]", "value": "co-precipitated with Bcl-2"}, {"measurement": "transfected cells exhibiting colocalization with Bcl-2", "setting": "[4]", "value": "Approximately 30%"}, {"measurement": "Bcl-2 immunofluorescence, antibody against BH3-binding pocket", "setting": "[5]", "value": "reduced"}, {"measurement": "Bcl-2 immunofluorescence, antibody against Bcl-2 BH3 domain", "setting": "[5]", "value": "dramatically increased"}, {"measurement": "Bcl-2 immunofluorescence, antibody against whole Bcl-2 protein", "setting": "[5]", "value": "did not result in altered Bcl-2 immunofluorescence"}]}, {"molecule": "B2", "values": [{"measurement": "interaction with Bcl-2 (Co-IP)", "setting": "[3]", "value": "significantly impaired the interaction; also recorded: very weak interaction"}]}]}
